From FireProtDB (doi:10.1016/0022-2836(91)90566-o)

Conditions: Enterobacteria phage fd; pH 7; 25 °C; GdnHCl; CD; MOPS 50 mM; NaCl 100 mM; reversible: yes; whole UniProt chain shown

B1: DNA-Binding protein G5P wild type, P69542 (protein)
chain: MIKVEIKPSQAQFTTRSGVSRQGKPYSLNEQLCYVDLGNEYPVLVKITLDEGQPAYAPGLYTVHLSSFKVGQFGSLMIDRLRLVPAK
In the case of B1, the denaturant m value is reported as 3.6 kcal/mol/M, the “denaturant midpoint (higher = more stable)” value is reported as 2.61 M and the unfolding free energy is reported as 9 kcal/mol.
